Results on one substance are retold here after patent US20160257710A1, “SELECTIVE INHIBITORS OF PROTEINASE 3” (INSERM (INSTITUT NATIONAL DE LA SANTÉ ET LA RECHERCHE …, priority 2013, published 2016).

Common to all, as to type: biochemical
Experiment [1] addresses T1, HNE (Homo sapiens, UniProt P08246).
T1 sequence (P08246 30-267): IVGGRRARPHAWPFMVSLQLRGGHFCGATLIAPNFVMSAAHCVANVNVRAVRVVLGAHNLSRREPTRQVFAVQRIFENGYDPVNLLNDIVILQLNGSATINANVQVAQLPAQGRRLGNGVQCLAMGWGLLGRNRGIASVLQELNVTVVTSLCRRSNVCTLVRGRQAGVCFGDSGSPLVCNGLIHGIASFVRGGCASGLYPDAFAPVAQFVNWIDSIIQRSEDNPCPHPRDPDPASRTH
The experiment can be described thus: Residual activity of purified protease with FRET substrate in presence of increasing amounts of compound. The text has this: (§1) Phosphonate inhibitors and their biotinylated and fluorescent derivatives were synthesized, purified and controlled by mass spectrometry as reported. Their purity was checked by HPLC (data not shown). Purified Ac-Asp-Tyr-Asp-Ala^P(O—C6H4-4-Cl)2 (compound 1) and Ac-Pro-Tyr-Asp-Ala^P(O—C6H4-4-Cl)2 (compound 2) were first assayed for their inhibitory properties by measuring the residual activity of the human neutrophil serine proteases PR3, HNE and CatG in the presence of increasing amounts of each compound. We used for this purpose the FRET substrates that we developed previously for each protease (18). An almost complete inhibition of PR3 (1 nM final) was obtained after a 30 min incubation time with 20 μM of compound 1 (FIG. 1) and 0.3 μM of compound 2 (FIG. 2). Recombinant PR3K99L, […], HNE and CatG were used in the same experimental conditions. […] This emphasizes the importance of the S2 and S4 subsites to discriminate between PR3 and HNE specificities. Significant inhibition of HNE was obtained using about 100 times more Ac-Pro-Tyr-Asp-Ala^P(O—C6H4-4-Cl)2 than required to inhibit PR3. […] We confirmed this observation kinetically by measuring the second order rate constants kobs/l by competition experiments between the PR3 substrate and each inhibitor (17). As expected the second order rate constant kobs/l for compound 2 was about 100 times greater than that for compound 1 (see Table 1).

Experiment [2] deals with T2, PR3 (Homo sapiens, UniProt P24158).
T2 construct: in a lysate of purified human neutrophils; endogenous in cells; host or cells: purified human neutrophils (lysate)
T2 sequence (P24158 28-248): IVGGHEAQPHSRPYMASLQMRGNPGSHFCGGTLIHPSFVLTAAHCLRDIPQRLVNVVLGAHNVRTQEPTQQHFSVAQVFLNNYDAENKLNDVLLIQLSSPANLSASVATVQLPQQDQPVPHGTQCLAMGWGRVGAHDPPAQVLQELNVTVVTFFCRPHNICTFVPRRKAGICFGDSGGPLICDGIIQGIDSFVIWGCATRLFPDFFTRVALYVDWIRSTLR
The description is as above. Particulars: PR3 1 nM final, 30 min incubation.
From the text: as §1

The target in experiment [3] is T3, CatG (Homo sapiens, UniProt P08311).
T3 sequence (P08311 21-244): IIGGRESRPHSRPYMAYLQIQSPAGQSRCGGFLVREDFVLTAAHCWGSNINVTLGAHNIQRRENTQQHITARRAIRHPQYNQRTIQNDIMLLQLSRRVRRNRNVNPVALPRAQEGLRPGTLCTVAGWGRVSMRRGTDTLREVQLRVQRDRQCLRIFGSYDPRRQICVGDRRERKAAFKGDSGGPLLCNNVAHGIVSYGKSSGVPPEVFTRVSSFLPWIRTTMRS
Described as above. The settings on record: CatG 1 nM, same experimental conditions as PR3.
From the text: as §1

The target of experiment [4] is T4, PR3I217R (Homo sapiens, UniProt P24158, I221R).
T4 construct: made in house; host or cells: Drosophila S2 cells
T4 sequence (P24158 28-248 I221R limits assumed): T2 sequence (P24158 28-248) with I194R
Put plainly: Residual activity of recombinant PR3 mutant in presence of increasing amounts of compound. As to the method: (§2) Recombinant PR3K99L and […] were produced in Drosophila S2 cells using the calcium phosphate method, and stable cell lines were selected using puromycin. Proteins were purified by affinity chromatography on Chelating Sepharose and analyzed by SDS-PAGE. The total protein concentration was determined with a BCA Protein Assay
as §1

Experiment [5] addresses T5, PR3K99L (Homo sapiens, UniProt P24158, K115L).
T5 construct: made in house; host or cells: Drosophila S2 cells
T5 sequence (P24158 28-248 K115L limits assumed): T2 sequence (P24158 28-248) with K88L
The experiment is described as above. The settings on record: Lys99 replaced by Leu in S2 subsite. As to the method:
as §2, §1

The target of experiment [6] is T2, PR3. The experiment can be described thus: Inhibition of protease activity in crude lung secretions of patients (IPF, cystic fibrosis). The settings on record: 30 min incubation, IPF and CF samples. As to the method:
Crude lung secretions of patients with chronic inflammatory disorders associating significant neutrophil recruitment (IPF, Cystic fibrosis) were used as biological material to assay the efficacy of phosphonate inhibitors. We first measured the rate of cleavage of the PR3 substrate in >3 IPF and >3 CF crude samples before and after incubation with compounds 2 and 4 (×μM final). All crude samples cleaved the PR3 substrate in the absence of inhibitor and the cleavage always occurred at the expected bond, i.e. the cleavage bond of PR3, as checked by HPLC. The PR3 concentration was in the 0.1-1 μM range in lung secretions, based on the rate of substrate hydrolysis. […] Further, the rate of PR3 inactivation in a crude biological sample […] that of purified PR3, which means that there is no adverse effect impairing the PR3 inhibition in lung secretions of patients with inflammatory disorders.

Substitutions are numbered along the chain they refer to. Where no end group is shown, it is not given here. [ ]: non-standard residue; d: D form. AlaP = not defined here

As for “Ac-Pro-Tyr-Asp-Ala^P(O—C6H4-4-Cl)2 (Ac-PYD[AlaP]; not fully specified (C-terminus); printed as Ac-Pro-Tyr-Asp-Ala^P(O—C6H4-4-Cl)2; reading uncertain; also: C-terminal Ala as phosphonate analogue (Ala^P)) [Compound 2]”, the “amount of inhibitor for significant inhibition of HNE relative to that required to inhibit PR3” value in experiment [1] is “about 100 times”. In addition, in experiment [1] (HNE 1 nM, same experimental conditions as PR3), the “inhibition of HNE” value is “no significant inhibition”. Besides, the “concentration giving almost complete inhibition of PR3” value in experiment [2] was 0.3 µM. Also, the “inhibition of CatG” value in experiment [3] is listed as “no significant inhibition”. The “inhibition of the Ile217 to Arg217 PR3 mutant compared with PR3K99L” value in experiment [4] is listed as “more efficient toward this mutant”. In addition, the “sensitivity of PR3K99L to inhibition compared with wt PR3” value in experiment [5] is “far less sensitive to inhibition”. In experiment [6], the “hydrolysis of PR3 substrate in crude lung secretions” value is recorded as “total inhibition”.
